Experimental findings from publication PMC3963902, “Esterase LpEst1 from Lactobacillus plantarum: A Novel and Atypical Member of the αβ Hydrolase Superfamily of Enzymes” (PLoS ONE, 2014) are described below.

Substrate in data set [1]: CCCC(=O)Oc1ccc([N+](=O)[O-])cc1
As to the kind of experiment: spectrophotometric p-nitrophenol release. It counts as biochemical, Lactiplantibacillus plantarum. The settings on record: 50 mM sodium phosphate, pH 7.0, 30 °C. From the text: (§1) spectrophotometric p-nitrophenol release on LpEst1

Substrate in data set [2]: CC(=O)Oc1ccc([N+](=O)[O-])cc1
As to the kind of experiment: spectrophotometric p-nitrophenol release. It counts as biochemical, Lactiplantibacillus plantarum. The settings on record: 50 mM sodium phosphate, pH 7.0, 30 °C.
From the text: as §1

B1: LpEst1 (Lactiplantibacillus plantarum) (protein)
chain: MPTINSIQTTVNGVVKIVKPFNNDIAGEQFDPHVLQTLTAFKQPAILENDLAALRSGSLTPAIADPVGDAVTVQSRNITALNRTVSVEWLTPQNVINHTVLVYFHGGAFYGGVPGNNTVLLKLVAAKSHCEILNVDYSLAPEAPAPAGILDGLAIFQYLEQRDAETMITVAGDSAGANVIMAATNLNQQLGSNRINQQLLLYPVTAPNADHAGPLWDLAAFPIIDSQRAILTNYHDLFRQLDSIMTDYYVPENFDSHSPLISPLHQENFTMTPPTTIMVGEFDPFRPQAWAYAQRLAAADTATTFIQYQGLNHAFAPLVDQYWQSQDVAQVMAAALI
notes: homodimer
Regarding B1, in data set [1], the Michaelis-Menten constant (Km) is 200 ± 100 µM, the maximum rate (Vmax) came out at 8 µmol/min/mg and the kcat came out at 4.4 ± 0.3 s⁻¹. In data set [2], the Michaelis constant (Km) amounted to 380 ± 50 µM, the Vmax amounted to 75 µmol/min/mg and the turnover number (kcat) stood at 40.4 ± 2 s⁻¹.
